The values below come from the supplement of paper PMC9170038.

The subject of this data set is MS2 coat protein. Put plainly: apparent KD of MS2 coat protein; higher = weaker reporter binding. The note with it: Eterna round: R107. The method, boiled down:
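SNAP-549-labelled MS2 coat protein was titrated onto designed RNA switches that had been transcribed on-chip from Illumina sequencing clusters. Amounts doubled from 0.7 or 1.5 nM to 3 µM in 100 mM Tris-HCl pH 7.5, 80 mM KCl, 4 mM MgCl2, with constant ligand or without. Apparent KD is the median per design of normalised cluster binding-curve fits.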

[1] abbreviates: input ligand: theophylline 20 uM.
Where [2] appears, read: input ligand: theophylline 2 mM.
Setting [3] is: input ligand: tryptophan 2.4 mM.

Consider “AUACAUGAGGAUCACCCAUGUGAUGGCCGGCGAGGACCGGUACGGCCGCCACUCGUGAUCCGUCCUGAAAGCAAAGCUCCCAGCA [Lalazare]”, for which the “apparent KD of MS2 coat protein” value (input ligand: arginine 13.2 mM) was 25.1 nM, the “apparent KD of MS2 coat protein” value under setting [1] is 244 nM and the “apparent KD of MS2 coat protein” value under setting [2] stood at 178 nM.
As to “AUACCUAAUGUUACAUUUACCUUAUCAGAUACCAGACUUUACGUUGUCCCUUGGCAGCUGUAUCACAUGAGGAUCACCCAUGUUG [JR_SSTheophyA_Sub010]”, the “apparent KD of MS2 coat protein” value reads like this: (input ligand: arginine 13.2 mM) 17.1 nM; under setting [1], 19.2 nM; under setting [3], 15.3 nM.
On to “AUAUAUACAUGAGGAUCACCCAUGUUAUUACGAGGACCGGUACGGCCGCCACUCGAUAGAGUAGAAGUAAAUUGUAAUUCAUGUU [JR_ExcTryptoA_Sub016]”, for which the “apparent KD of MS2 coat protein” value came to 13.8 nM (input ligand: arginine 13.2 mM), 15.6 nM under setting [1] and 11.6 nM under setting [2].
Take “AUAUAUACAUGAGGAUCACCCAUGUUAUUUCGAGGACCGGUACGGCCGCCACUCGAUAGAGUGGAAGUAACAUUUGUUAGAUGAU [JR_SSTryptoA_Sub013]”: the “apparent KD of MS2 coat protein” value runs as follows: (input ligand: arginine 13.2 mM) 12.8 nM; under setting [1], 17 nM; under setting [2], 16.3 nM.
Turning to “AUCCACAGCCGAAGGAGCGCAGUAGGAUGACAUGAGGAUCACCCAUGUGUGUGAUGUGGAUUGCAGGUAGGUCGCGGAGUGGGUU [Exclusion - Arginine B (Freestyle 8)]”, the “apparent KD of MS2 coat protein” value (input ligand: arginine 13.2 mM) is 43.9 nM; the “apparent KD of MS2 coat protein” value (input ligand: none) was 71.7 nM; the “apparent KD of MS2 coat protein” value under setting [1] turned out to be 72.5 nM; the “apparent KD of MS2 coat protein” value under setting [2] is 73.6 nM; the “apparent KD of MS2 coat protein” value under setting [3] was 72.6 nM.
Regarding “AUCGUACCUAAUGAUACCAGCAAGUGAUCAUAACAUGAGGAUCACCCAUGUAAUCAGUGAUGCCCUUGGCAGCAUAAUCGUUACA [Same State - Theophylline B (Freestyle 2)]”, the “apparent KD of MS2 coat protein” value is, setting by setting: (input ligand: arginine 13.2 mM) 94.7 nM; under setting [1], 218 nM; under setting [3], 169 nM.
In the same order, the values of “AUCGUACCUAGUGAUACCAGCAAGUGAUCAUAACAUGAGGAUCACCCAUGUAAUCAGUGAUGCCCUUGGCAGCAUAAUCGUUACA [Same State - Theophylline B (Freestyle 1)]” are 118 nM, 228 nM and 173 nM.
In the case of “AUCUUUGAUGAUCUGGGAAAACCAGAUCGGCGAGGACCGGUACGGCCGCCACUCGUGUAUAAUAUACAUGAGGAUCACCCAUGUA [#20 Tryptophan A Same State]”, the “apparent KD of MS2 coat protein” value turned out to be 50 nM (input ligand: arginine 13.2 mM); 55.4 nM (input ligand: none); 99 nM under setting [1]; 91.6 nM under setting [2]; 25.1 nM under setting [3].
Take “AUCUUUGGCGAUCUGGGAAAACCAGAUCGACGAGGACCGGUACGGCCGCCACUCGUGUAUAAUAUACAUGAGGAUCACCCAUGUA [#18 Tryptophan A Same State]”: the “apparent KD of MS2 coat protein” value is 27.8 nM (input ligand: arginine 13.2 mM), 61.1 nM under setting [1] and 64.7 nM under setting [2].
Take “AUGACUCACAAAGAAGAUAAAAUGGGUGAACGAGGACCGGUACGGCCGCCACUCGGACAUGAGGAUCACCCAUGUCCAUGUGCAA [#24 Exclusion Tryptophan A]”: the “apparent KD of MS2 coat protein” value amounted to 16 nM (input ligand: arginine 13.2 mM), 24.3 nM under setting [1] and 21 nM under setting [2].
As to “AUGCAGGGCAACAGCCACUGUCACGGUGAUACCAGUACCCGUGCGUACCCUUGGCAGCAUCGUGGUACAUGAGGAUCACCCAUGU [Enatleceed]”, the “apparent KD of MS2 coat protein” value is, setting by setting: (input ligand: arginine 13.2 mM) 36.8 nM; under setting [1], 503 nM; under setting [3], 546 nM.
As for “AUGUAGAACCGAAGGAGCGCGAUAACAUGAGGAUCACCCAUGUAGUUUUGGUGGCUUCGAUCGCAGGUAGGUCGCGGAAGUAGUA [#03 Exclusion - Arginine B]”, the “apparent KD of MS2 coat protein” value came to 37.9 nM (input ligand: arginine 13.2 mM); 35.9 nM (input ligand: none); 97.6 nM under setting [1]; 77 nM under setting [2]; 55.4 nM under setting [3].
In the same order, the values of “AUGUCGUUGAAUAUAGCGGCUUGGUGUGAUACCAGAAUGAUCUAAUUCCCUUGGCAGCAUUACAUGAGGAUCACCCAUGUUCCAG [SSTheo A #21]” are 23.6 nM, 39.1 nM, 47.4 nM, 57.3 nM and 48.7 nM.
Consider “AUUAAGGAUAUGUAGAAGGCGGAGAAGAGACGAGGACCGGUACGGCCGCCACUCGUGUUAGUUAACAUGAGGAUCACCCAUGUAA [#06 Tryptophan A Same State]”, for which the “apparent KD of MS2 coat protein” value amounted to 14.3 nM (input ligand: arginine 13.2 mM); 60.7 nM (input ligand: none); 72.3 nM under setting [1]; 112 nM under setting [2]; 17.1 nM under setting [3].
As to “AUUAAUUGUCGUGAUACCAGACAUACAUGAGGAUCACCCAUGUUAAGUAACAUUUUUUAUGUCCCUUGGCAGCACUUUUUAAUUA [JR_Nu_SSTheophyB_Sub017]”, the “apparent KD of MS2 coat protein” value was 22 nM (input ligand: arginine 13.2 mM), 24.8 nM under setting [1] and 19.7 nM under setting [3].
As to “AUUAUCAUGGUCAUUUAUAUUUCGUCAGAUACCAGACUAGAUAUAGUCCCUUGGCAGCUGUUACAUGAGGAUCACCCAUGUUAUU [JR_ExcTheophyA_Sub018]”, the “apparent KD of MS2 coat protein” value turned out to be 44.7 nM (input ligand: arginine 13.2 mM), 70.6 nM under setting [1] and 103 nM under setting [3].
In the case of “AUUCAUGAAAACAUGACAUGAGGAUCACUCCGAGGACCGGUACGGCCGCCACUCGCGAGGAGGCACAUGAGGAUCACCCAUGUUA [SS Tryp A #2]”, the “apparent KD of MS2 coat protein” value runs as follows: (input ligand: arginine 13.2 mM) 36 nM; under setting [1], 119 nM; under setting [2], 143 nM.
